In PMC6774351:
pKd: −log10 of the molar value.

Target: Alexa488-labelled NLRP3 (human)
Assay: MST

Substance: NEK7 (wild type; NEK7 monomer) (from UniProt Q8TDX7 1-302) (enzyme)
- pKd: 7.10
